Target: T1, Soli E2 (Solenopsis invicta)
T1 sequence: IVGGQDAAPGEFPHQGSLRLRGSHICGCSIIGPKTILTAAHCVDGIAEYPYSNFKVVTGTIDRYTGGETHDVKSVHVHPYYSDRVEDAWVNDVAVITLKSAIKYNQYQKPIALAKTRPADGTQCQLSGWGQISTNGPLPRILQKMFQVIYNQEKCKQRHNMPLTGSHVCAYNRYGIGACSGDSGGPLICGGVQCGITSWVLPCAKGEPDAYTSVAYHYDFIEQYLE
Test: cell-based or functional assay

α-1-Proteinase Inhibitor, sequence (P01009 25-418 limits assumed): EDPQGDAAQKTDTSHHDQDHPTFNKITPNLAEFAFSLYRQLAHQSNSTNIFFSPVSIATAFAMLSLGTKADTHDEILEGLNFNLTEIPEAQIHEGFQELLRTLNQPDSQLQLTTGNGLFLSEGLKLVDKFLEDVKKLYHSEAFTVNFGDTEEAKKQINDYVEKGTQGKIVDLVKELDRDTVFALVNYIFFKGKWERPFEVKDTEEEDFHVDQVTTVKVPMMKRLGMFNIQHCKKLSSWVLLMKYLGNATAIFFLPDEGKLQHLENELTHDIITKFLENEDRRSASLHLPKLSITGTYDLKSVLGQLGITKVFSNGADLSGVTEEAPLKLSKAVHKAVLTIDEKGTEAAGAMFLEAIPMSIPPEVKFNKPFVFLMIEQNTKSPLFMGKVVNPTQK

Max Inhibition Rate/IC50	IC50	Substance
666	–	Boc-Ala-Pro-Val-^p(OPh)2 (peptide)
735	–	Boc-Val-Pro Val-^p(OPh)2 (peptide)
–	7.68 nM	Canadian Goose OM
–	27.3 nM	Canadian Goose OM Domain III (from UniProt P68393 1-54)
–	6.03 nM	Domestic Goose OM
–	5.58 nM	Domestic Goose OM Domain III (from UniProt P68389 1-54)
–	1.89 nM	Eglin C (from UniProt P01051 1-70)
–	9.13 nM	Potato Inhibitor I
–	10.1 nM	Potato Inhibitor II
27.2	–	Z-Ala-Val-^p(OPh)2 (peptide)
< 0.1	–	Z-Gly-Leu-Phe-CK (peptide)
< 0.1	–	Z-Leu-Phe-^p(OPh)2 (peptide)
< 0.1	–	Z-Phe-Leu-Phe-^p(OPh)2 (peptide)
< 0.1	–	Z-Phe-Phe-^p(OPh)2 (peptide)
36.6	–	Z-Pro-Val-^p(OPh)2 (peptide)
76.8	–	Z-Val-Val-^p(OPh)2 (peptide)
–	0.604 nM	α-1-Proteinase Inhibitor (from UniProt P01009 25-418)

Reference: US6399759
